{
  "source": "patent US6767738B1",
  "about": "“Method of isolating adult mammalian CNS-derived progenitor stem cells using density gradient centrifugation” (The Salk Institute for Biological Studies, priority 1999, dated 2004)",
  "assay_type_in_all_cases": "cell-based, rat",
  "key": {"[1]": {"system": "c-fos mRNA (Trk receptor tyrosine kinase signaling)", "assay": "RT-PCR analysis of neurotrophin-dependent c-fos induction", "settings": "for induction of c-fos mRNA: proliferating controls treated with neurotrophin", "protocol": "(§1) Cell Culture. For proliferating conditions, clonal stem cells (AP14) were cultured in Dulbecco's Modified Eagles Medium/Ham's F12 (DMEM/F12, 1:1) containing N2 supplement (Gibco BRL, Gaithersburg, Md.) and 20 ng/ml rhFGF-2 (provided by A. Baird, Prizm Pharmaceuticals Inc., La Jolla, Calif.). Culture dishes (Becton Dickinsin Labware, Lincoln Park, N.J.) were coated with polyomithine and mouse laminin as previously described by Ray, et al., Proliferation, differentiation and long-term culture of primary hippocampal neurons, Proc Natl Acad Sci USA 90:3602-3606 (1993). For differentiation experiments, cells were plated into polyornithine/laminin coated glass chamber slides (Nunc, Naperville, Ill.) at a density of 2.5—103 per cm2. The cells were incubated for 24 hrs in normal N2 medium containing 20 ng/ml FGF-2, and then the medium was replaced by N2 medium containing 0.5% […] (FBS) and 0.01% DMSO (control solvent) or […] all-trans retinoic acid (Sigma, St. Louis, Mo.). For further differentiation, the medium was replaced by N2 medium containing 0.5% FBS and one of the following: sterile water (control solvent), mouse 2.55 NGF (50 ng/ml, Boehringer Mannheim, Indianapolis, Ind.), rhBDNF (20 ng/ml, Alomone Labs, Jerusalem, Israel), rhNT-3 (40 ng/ml, Genentech, South San Francisco, Calif.). The medium was replaced every two days. For inhibition of the tyrosine kinase activity of the Trk receptors, K-252a (100 nM, Calbiochem, San Diego, Calif.) was added to the medium.\nReverse Transcription-PCR Analysis. Total RNA from stem cells was isolated using RNeasy Total RNA Kits (Qiagen, Chatsworth, Calif.) according to manufacturer's instructions. Fifty nanograms of total RNA was reverse transcribed using avian myeloblastosis virus reverse transcriptase (Promega, Madison, Wis.) with random hexamers ([…]) as primers in a […] reaction mixture. For PCR amplification, two sets of specific oligonucleotide pairs ([…]) were used: one directed to the transcript of interest, and one for a constitutively expressed transcript, either ribosomal protein L27 or L27a. Reactions were performed in a […] reaction mixture containing 10 mM Tris-Cl (pH 8.4), 50 mm KCl, 1.5 mM MgC12, […] each of the four dNTPs, 2 mCi of [a-32P]dCTP and 5 units of Taq polymerase (Promega) using a thermal cycler (Perkin-Elmer, Foster City, Calif.) with a regimen of 1 min at 94° C., 2 min at 60° C. (55° C. for trk receptors) and 2 min at 72° C. for 23 cycles Fifty microliters of each reaction was analyzed by electrophoresis on 8% polyacrylamide gels followed by autoradiography. […] Under these conditions, the L27 amplification product was directly proportional to the amount of input RNA, up to 50 ng total RNA. Oligonucleotide primers used are as follows: […]\nRA treatment also results in neurotrophin-dependent induction of c-fos. Transient and rapid induction of immediate early genes such as c-fos is a well-characterized response to extracellular stimuli in neural cells. c-fos is induced after neurotrophin treatment in cultured […] hippocampal or cortical cells and the signaling cascade following c-fos induction is considered to be integral to subsequent steps in differentiation. To determine whether upregulation of mRNAs for trk receptors and p75NGFR observed in the stem cell cultures results in the acquisition of functional Trk-dependent stimulation of c-fos, mRNA was examined by RT-PCR analysis after stimulating RA-treated cells with neurotrophins. […]"}, "ACSC cultures": {"system": "ACSC cultures", "assay": "Neuronal transmitter phenotype after RA priming and neurotrophin treatment (GABA, TH, calbindin, AChE)", "settings": "neurotrophin after 6 days RA", "protocol": "as §1\nImmunofluorescence. An immunofluorescent staining was performed as previously described (Gage F H, Ray J, Fisher L J (1995a) Isolation, characterization, and use of stem cells from the CNS. Annu Rev Neurosci 18: 159-192. or Gage F H, Coates P W, Palmer T D, Kuhn H G, Fisher L J, Suhonen J O, Peterson D A, Suhr S T, Ray J (1995b) Survival and differentiation of adult neuronal progenitor cells transplanted to the adult brain. Proc Natl Acad Sci USA 92:11879-11883.) Briefly, after fixation with 4% paraformaldehyde in PBS, cells were incubated with primary antibodies overnight at […]. Then the cells were incubated for 1 hr with secondary antibodies (Jackson Immunoresearch) conjugated to fluorescein isothiocyanate, or cyanin-3. Primary antibody concentrations used are as follows (mo=mouse monoclonal, rb=rabbit polyclonal, gp=guinea pig polyclonal): mo a-MAP2abc, 1:5000 (Sigma), mo a-MAP2ab, 1:500 (Sigma), mo a-p75NGFR, 1:10 (192-IgG hybridoma supernatant, a gift from C. E. Chandler, Stanford Univ., Stanford, Calif.), rb a-c-Fos (4),1:4000 (Santa Cruz Biotechnology, Santa Cruz, Calif.), gp a-GFAP, 1:500 (Advanced Immunochemicals, Long Beach, Calif.), rb a-GABA, 1:5000 (Sigma), mo a-TH, 1:500 (Boehringer Mannheim), rb a-calbindin 1:1000 (SWant, Bellinzona, Switzerland). Labeled cells were visualized using confocal scanning laser microscopy (Zeiss Axiovert, Thornwood, N.Y. and Bio-Rad MRC1000, Hemel Hempstead, UK) and color images were generated using Adobe Photoshop (Adobe Systems, Mountain View, Calif.). Both the average percentage and the absolute number +/− SEM of immunofluorescent cells were determined by counting 10 or 50 high power fields (20×) visualized under fluorescence. The total number of cells was counted using nuclear counterstaining with 4′,6diamidino-2-phenylindole (DAPI, Sigma). Statistical analyses were carried out using ANOVA test.\nHistochemical Staining for AChE. Cholinergic cells were identified by histochemical staining for AChE by a modification of the staining method of Geneser-Jensen and Blackstadt. Distribution of acetylcholinesterase in the hippocampal region of the guinea pig. I. Entorhinal area parasubiculum, and pre-subiculum, Z Zellforsch 114:460-481(1971). […]"}, "[2]": {"system": "low-buoyancy cortical cells", "assay": "Acquisition of neuron competence by low-buoyancy cortical cells in culture", "settings": "10% serum or 5 ng/ml PDGF instead of FGF-2", "text": "Tissue dissection: Three areas were dissected from adult rat brains as follows. Rats (170-190 g Fisher 344 males or females, Harlan) were deeply anesthetized with a mixture of ketamine, xylazine, and acepromazine. Animals were decapitated and whole brains removed. First, ˜1.5 mm of each optic nerve were harvested rostral to, but not including, the optic chiasma. The brain was then bisected longitudinally and each hippocampal lobe separated from the overlaying cortical white matter using the natural separation line along the alveus hippocampus. The white matter of the fimbria and subiculum was removed as much as possible. Some white matter remained. Finally, a 1.5 mm wide cortical ribbon containing parietal and frontal segments was dissected longitudinally, proximal to the central fissure. The pial and callosal surfaces were trimmed from each cortical ribbon to remove a majority of the meninges and white matter.\nTissue dissociation and fractionation: Tissues were finely minced and digested in a solution of papain (2.5 U/ml, Worthington), DNAse (250 U/ml, Worthington), and neutral protease (1 U/ml Dispase, Boehringer) dissolved in Hanks balanced salt solution, as described in Palmer T D, Ray J, Gage F H (1995), FGF-2-Responsive Neuronal Progenitors Reside in Proliferative and Quiescent Regions of the Adult Rodent Brain. Mol Cell Neurosci 6:474-486; and Gage F H, Coates P W, Palmer T D, Kuhn H G, Fisher L J, Suhonen J O, Peterson D A, Suhr S T, Ray J (1995), Survival and differentiation of adult neuronal progenitor cells transplanted to the adult brain. Proc Natl Acad Sci USA 92:11879-11883. Cells and tissue fragments were washed 3 times with Dulbecco's Modified Eagles Medium (DMEM) containing 10% […] bovine serum (defined FBS, Hyclone). Whole digested tissue was then suspended in DMEM 10% FBS, filtered through a sterile 107 μm nylon mesh and thoroughly mixed with an equal volume of PERCOLL™ (polyvinylpyrrolidone-coated silica colloids) solution. The PERCOLL™ (polyvinylpyrrolidone-coated silica colloids) solution was made by mixing 9 parts of PERCOLL™ (polyvinylpyrrolidone-coated silica colloids) (Pharmacia) with 1 part 10X phosphate buffered saline (PBS, Irvine Scientific). The cell suspension was then fractionated by centrifugation for 30 minute, 18°C., at 20,000×g. […]\nTo determine how rapidly cortical cells acquired the competence to differentiate into neurons in culture, cells were isolated and cultured in growth medium for various times, allowed to differentiate in differentiation medium and then evaluated for the presence of neurons. […] Cultures were also treated with BrdU for the first 10 days and the newly generated neurons were evaluated for evidence of cell division. All neurons scored were labeled (>99%)."}},
  "data": [
    {"molecule": "COC(=O)[C@@]1(O)C[C@H]2O[C@]1(C)n1c3ccccc3c3c4c(c5c6ccccc6n2c5c31)C(=O)NC4", "note": "[K-252a, reference compound]", "values": [
      {"measurement": "c-fos induction by each neurotrophin (NGF, BDNF, NT-3)", "setting": "[1]; pretreatment with K-252a (100 nM)", "result": "blocked"}
    ]},
    {"molecule": "NT-3: Neurotrophin-3", "values": [
      {"measurement": "induction of c-fos mRNA", "setting": "[1]", "result": "slightly increased"},
      {"measurement": "number of AChE-positive cells", "setting": "ACSC cultures", "result": "small increases over control cultures"},
      {"measurement": "number of TH-positive cells", "setting": "ACSC cultures", "result": "increased"},
      {"measurement": "number of calbindin-positive cells", "setting": "ACSC cultures", "result": "increased"},
      {"measurement": "number of neurons expressing GABA", "setting": "ACSC cultures", "result": "increased"}
    ]},
    {"molecule": "PDGF", "values": [
      {"measurement": "neuron formation in control cultures", "setting": "[2]", "result": "no neurons were formed"}
    ]},
    {"molecule": "NGF: mouse 2.55 NGF, nerve growth factor (protein, UniProt P01139 122-241, looked up) Beta-nerve growth factor: SSTHPVFHMGEFSVCDSVSVWVGDKTTATDIKGKEVTVLAEVNINNSVFRQYFFETKCRASNPVESGCRGIDSKHWNSYCTTTHTFVKALTTDEKQAAWRFIRIDTACVCVLSRKATRRG", "values": [
      {"measurement": "induction of c-fos mRNA", "setting": "[1]", "result": "minimal"},
      {"measurement": "number of AChE-positive cells", "setting": "ACSC cultures", "result": "small increases over control cultures"},
      {"measurement": "number of TH-positive cells", "setting": "ACSC cultures", "result": "not"}
    ]},
    {"molecule": "BDNF: brain-derived neurotrophic factor (protein, UniProt P23560 19-247, looked up) Neurotrophic factor BDNF …: APMKEANIRGQGGLAYPGVRTHGTLESVNGPKAGSRGLTSLADTFEHVIEELLDEDQKVRPNEENNKDADLYTSRVMLSSQVPLEPPLLFLLEEYKNYLDAANMSMRVRRHSDPARRGELSVCDSISEWVTAADKKTAVDMSGGTVTVLEKVPVSKGQLKQYFYETKCNPMGYTKEGCRGIDKRHWNSQCRTTQSYVRALTMDSKKRIGWRFIRIDTSCVCTLTIKRGR", "values": [
      {"measurement": "induction of c-fos mRNA", "setting": "[1]", "result": "minimal"},
      {"measurement": "number of AChE-positive cells", "setting": "ACSC cultures", "result": "most effective agent"},
      {"measurement": "number of TH-positive cells", "setting": "ACSC cultures", "result": "increased"},
      {"measurement": "number of calbindin-positive cells", "setting": "ACSC cultures", "result": "increased"},
      {"measurement": "number of neurons expressing GABA", "setting": "ACSC cultures", "result": "increased"}
    ]}
  ]
}
